From US20230220078A1 (NAVI BIO THERAPEUTICS, published 2023)

T1: PVRL4_864 (94-957, 864 bps, r864p) recombinant fragment of Nectin-4 (PVRL4_HUMAN) (human, UniProt Q96NY8 32-319)
T1 construct: His-tagged and purified on Ni-sepharose from a 6M urea lysate; also called his-PVRL4_864
T1 sequence (looked up): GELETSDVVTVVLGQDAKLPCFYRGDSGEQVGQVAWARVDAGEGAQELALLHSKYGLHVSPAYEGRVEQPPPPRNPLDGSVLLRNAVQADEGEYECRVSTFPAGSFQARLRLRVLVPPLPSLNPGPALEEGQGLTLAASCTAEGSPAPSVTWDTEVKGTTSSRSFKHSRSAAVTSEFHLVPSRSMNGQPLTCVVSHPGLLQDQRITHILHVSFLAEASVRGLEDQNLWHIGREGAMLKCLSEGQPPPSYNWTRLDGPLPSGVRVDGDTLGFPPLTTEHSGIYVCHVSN


Tests used:
[1] = biological target: T1, PVRL4_864 (94-957, 864 bps, r864p) …; assay: competitive ELISA of purified scFv on r864p; competitive ELISA, purified scFv S21 on r864p
[2] = biological target: T1, PVRL4_864 (94-957, 864 bps, r864p) …; assay: competitive ELISA of purified scFv on r864p
[3] = biological target: T1, PVRL4_864 (94-957, 864 bps, r864p) …; assay: ELISA titration of purified scFv on PVRL4 864

Binder | Kd [1] | 50% concentration [2] | concentration of scFv at OD450 nm value of 1 [3] | Kd [2]
NECTIN4-scFv-S21 (scFv, V domains shown, Chicken-derived scFv from a pComb3X phage library, tested as purified scFv; also called anti-PVRL4 scFv S21; NECTIN4-scFv-521) VH: AVTLDESGGGLQTPGGALSLVCKASGFTFSSYAMMWVRQAPGKGLEYIAGIRSDGRYTYYGAAVKGRATISRDNGQSTVRLQLNNLRAEDTGTYYCAKSGVTDTSSSTYSSASNIDAWGHGTEVIVSS VL: ALTQPSSVSANLGGTVKITCSGGSGSYGWYQQKSPGSAPVTLIYANTNRPSDIPSRFSGSKSGSTSTLTITGVQAEDVAVYYCGSRDSSYVGIFGAGTTLTVL | 1410 nM | 52.5 µg/mL | 0.02 µg/mL | –
NECTIN4-scFv-S6 (scFv, V domains shown, Chicken-derived scFv, tested as purified scFv) VH: TVTLDESGGGLQTPGGGLSLVCKGSGFTFSSNGMAWVRQAPGKGLEFVAGVNAAGSWTGYGAAVKGRATISRDNGQSTVRLQLNDLRAEDTGTYYCAKTADDWYGADDIDAWGHGTEVIVSS VL: ALTQPSSVSTNLGETVEITCSGSSGYGYGWYQQKSPGSAPVTVIYSNDKRPSDIPSRFSGSASGSTATLTITGVRAEDEAVYLCGGYDSSASYVGIFGAGTTLTVL | – | 34.9 µg/mL | 0.31 µg/mL | 942 nM
NECTIN4-scFv-L1 (scFv, V domains shown, Chicken-derived scFv, tested as purified scFv) VH: AVTLDESGGGLQAPGGGLSLVCRASGFTFSSHGMFWVRQAPGKGLEFVAGISDAGSWTGYGAAVKGRATISRDSGQSTVRLQLNNLRAEDTGIYYCAKSAGDWYGADDIDAWGHGTEVIVSS VL: ALTQPSSVSANPGETVKITCSGGSSNYYGWYQQKSPGSAPVTLIYNNNKRPSDIPSRFSASKSGSTHTLTITGVRAEDEAVYFCGGWDKSAGIFGAGTTLTVL | – | 34.7 µg/mL | 0.04 µg/mL | 939 nM
